Laboratory results: patent US20210238292A1 (VACCINEX, published 2021)
Changes are numbered by the printed parent chain. Where two headings read alike, the source gives them in different places. One block for each molecule: values may come before it.

What was measured:
[1] = target: human CCR8 (C-C chemokine receptor type 8) expressed on cells (human) (UniProt P51685); assay: flow cytometry competition on Raji-CCR8 cells; competitor: fluorescently-conjugated BIOLEGEND anti-human CCR8 antibody at a single concentration
Chain of human CCR8 (C-C chemokine receptor type 8) expressed on cells (human) (P51685 whole entry): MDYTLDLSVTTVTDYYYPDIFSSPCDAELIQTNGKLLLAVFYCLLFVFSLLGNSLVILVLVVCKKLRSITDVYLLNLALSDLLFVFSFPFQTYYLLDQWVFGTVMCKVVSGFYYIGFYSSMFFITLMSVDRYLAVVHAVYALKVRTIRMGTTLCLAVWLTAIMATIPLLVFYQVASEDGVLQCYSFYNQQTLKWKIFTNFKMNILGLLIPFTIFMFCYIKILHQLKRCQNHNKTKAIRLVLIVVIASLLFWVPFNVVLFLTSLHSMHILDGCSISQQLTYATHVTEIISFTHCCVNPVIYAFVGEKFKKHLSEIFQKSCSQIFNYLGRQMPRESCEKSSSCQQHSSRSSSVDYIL

[2] = target: T1, human CCR8 (C-C chemokine receptor type 8) expressed on cells (human, UniProt P51685 1-355); assay: on-cell affinity, flow cytometry on 293T cells expressing human CCR8
T1 construct: also called HuCCR8
T1 sequence (P51685 whole entry): as above

[3] = target: T2, cynomolgus monkey CCR8 expressed on cells (cynomolgus monkey, UniProt G7NYJ2 1-355); assay: on-cell affinity, flow cytometry on 293T cells expressing cyno CCR8
T2 construct: whole, on cells; also called cyno CCR8; CyCCR8
Target sequence in this assay (G7NYJ2 entry or part of it): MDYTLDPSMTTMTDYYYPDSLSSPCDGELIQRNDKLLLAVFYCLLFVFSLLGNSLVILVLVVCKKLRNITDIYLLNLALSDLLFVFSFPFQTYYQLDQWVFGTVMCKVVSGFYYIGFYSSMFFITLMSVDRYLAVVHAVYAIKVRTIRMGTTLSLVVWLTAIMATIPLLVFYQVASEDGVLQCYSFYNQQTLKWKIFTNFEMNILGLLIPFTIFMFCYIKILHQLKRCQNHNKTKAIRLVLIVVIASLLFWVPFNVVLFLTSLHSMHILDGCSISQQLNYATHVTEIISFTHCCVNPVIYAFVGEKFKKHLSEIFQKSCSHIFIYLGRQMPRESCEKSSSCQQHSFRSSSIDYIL

[4] = target: T1, human CCR8 (C-C chemokine receptor type …); assay: flow cytometry, HuCCR8-293T cells, fold geomean over secondary alone
[5] = target: T2, cynomolgus monkey CCR8 expressed on …; assay: flow cytometry, CyCCR8-293T cells, fold geomean over secondary alone
[6] = target: T3, Cynomolgus CCR8-ECD-Fc (cynomolgus monkey); assay: binding to CyCCR8-ECD-Fc protein, OD 450-570 nm
T3 construct: also called CyCCR8-ECD-Fc; Cynomolgus CCR8-Fc
T3 chain: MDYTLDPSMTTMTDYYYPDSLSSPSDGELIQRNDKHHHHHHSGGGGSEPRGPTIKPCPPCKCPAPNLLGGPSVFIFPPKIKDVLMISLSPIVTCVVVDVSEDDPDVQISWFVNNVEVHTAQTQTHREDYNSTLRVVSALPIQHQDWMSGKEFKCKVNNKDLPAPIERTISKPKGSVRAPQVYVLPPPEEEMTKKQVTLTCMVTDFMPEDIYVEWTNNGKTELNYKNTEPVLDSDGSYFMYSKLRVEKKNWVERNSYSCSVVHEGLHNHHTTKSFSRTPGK

[7] = target: T1, human CCR8 (C-C chemokine receptor type …); assay: on-cell affinity, flow cytometry on 293T cells expressing human CCR8; remark: listed apart in the source
[8] = target: T4, Human CCR8-ECD-Fc (human); assay: binding to HuCCR8-ECD-Fc protein, OD 450-570 nm
T4 construct: also called HuCCR8-ECD-Fc; huCC8-ECD-Fc
T4 chain: T3 chain with P7L, M9V, M12V, S20I, L21F, G27A, R32T, D34G

[9] = target: T4, Human CCR8-ECD-Fc; assay: binding to HuCCR8-ECD-Fc protein, OD 450-570 nm
[10] = target: T1, human CCR8 (C-C chemokine receptor type …); assay: flow cytometry, HuCCR8-293T cells, fold geomean over secondary alone; remark: listed apart in the source
[11] = target: T2, cynomolgus monkey CCR8 expressed on …; assay: flow cytometry, CyCCR8-293T cells, fold geomean over secondary alone; remark: listed apart in the source
[12] = target: T3, Cynomolgus CCR8-ECD-Fc; assay: binding to CyCCR8-ECD-Fc protein, OD 450-570 nm
[13] = target: T2, cynomolgus monkey CCR8 expressed on …; assay: flow cytometry, CyCCR8-293T cells, fold geomean over secondary alone; remark: listed apart in the source
[14] = target: T4, Human CCR8-ECD-Fc; assay: binding to HuCCR8-ECD-Fc protein, OD 450-570 nm
[15] = target: T1, human CCR8 (C-C chemokine receptor type …); assay: flow cytometry, HuCCR8-293T cells, fold geomean over secondary alone; remark: listed apart in the source
[16] = target: T3, Cynomolgus CCR8-ECD-Fc; assay: binding to CyCCR8-ECD-Fc protein, OD 450-570 nm
[17] = target: T1, human CCR8 (C-C chemokine receptor type …); assay: flow cytometry, HuCCR8-293T cells, fold geomean over secondary alone; remark: listed apart in the source
[18] = target: T3, Cynomolgus CCR8-ECD-Fc; assay: binding to CyCCR8-ECD-Fc protein, OD 450-570 nm
[19] = target: T4, Human CCR8-ECD-Fc; assay: binding to HuCCR8-ECD-Fc protein, OD 450-570 nm
[20] = target: T2, cynomolgus monkey CCR8 expressed on …; assay: flow cytometry, CyCCR8-293T cells, fold geomean over secondary alone; remark: listed apart in the source
[21] = target: T4, Human CCR8-ECD-Fc; assay: binding to HuCCR8-ECD-Fc protein, OD 450-570 nm
[22] = target: T3, Cynomolgus CCR8-ECD-Fc; assay: binding to CyCCR8-ECD-Fc protein, OD 450-570 nm
[23] = target: T1, human CCR8 (C-C chemokine receptor type …); assay: flow cytometry, HuCCR8-293T cells, fold geomean over secondary alone; remark: listed apart in the source

Molecule: Biolegend control (antibody)
- IC50 (read off the curve) [1]: 0.03 µg/mL

B1: anti-CCR8-parental-1 (antibody, V domains shown)
VH: QVQLVQSGAEVKKPGASVKVSCKASGYTFTSYYMHWVRQAPGQGLEWMGIINPSGGSTSYAQKFQGRVTMTRDTSTSTVYMELSSLRSEDTAVYYCARGVGNGFRFDYWGQGTLVT
VL: QSALTQPASVSGSPGQSITISCTGTSSDVGSYNLVSWYQQHPGKAPKLMIYEVSKRPSGVSNRFSGSKSGNTASLTISGLQAEDEADYYCSSYAGSSTFVVFGGGTKLTVL
notes: Full-length human IgG; also called parental antibody; H23188/L1037
- Kd [2]: 1.06 nM

B3: anti-CCR8-2-8 (antibody, V domains shown)
VH: EVQLVESGGGLVQPGRSLRLSCAASGFTFDDYAMHWVRQAPGKGLEWVSGISWNSGSIGYADSVKGRFTISRDNSKNSLYLQMNSLRAEDTALYYCARGRRSYRDSLRFDYWGQGTLVTVSS
VL: QSVLTQPPSVSGAPGQRVTISCTGSGSNIGNNYVSWYQQLPGTAPKMLIYDNTRRPSGIPDRFSGSKSDTSATLGITGLQTGDEADYYCGAWDSSLRMWVFGGGTKLTVL
notes: Human IgG
- Kd [3]: 2.5 nM
- EC50 (read off the curve) [9]: ~0.04 µg/mL
- EC50 (read off the curve) [10]: ~0.4 µg/mL
- EC50 (read off the curve) [11]: ~1 µg/mL
- EC50 (read off the curve) [12]: ~0.04 µg/mL
- Kd [7]: 1.5 nM

B6: anti-CCR8-2-10 (antibody, V domains shown)
VH: B3 VH with R101K
VL: QSVLTQPPSVSAAPGQKVTISCSGTSSNIGKNFVSWYQQLPGTAPKLLIYDDNKRPSGIPDRFSGSKSATSATLGITGLQTGDGADYYCGTWDSSLSAWVFGGGTKLTVL
notes: Human IgG
- EC50 (read off the curve) [21]: ~0.04 µg/mL
- Kd [3]: 3.9 nM
- EC50 (read off the curve) [22]: ~0.04 µg/mL
- EC50 (read off the curve) [23]: ~0.6 µg/mL
- Kd [7]: 2.4 nM

Next, values leading:

- Kd [3]: 3.9 nM
- EC50 (read off the curve) [4]: ~0.4 µg/mL
- EC50 (read off the curve) [5]: ~1 µg/mL
- EC50 (read off the curve) [6]: ~0.03 µg/mL
- Kd [7]: 2.5 nM
- EC50 (read off the curve) [8]: ~0.03 µg/mL
B2: anti-CCR8-2-3 (antibody, V domains shown)
VH: B3 VH with R101K
VL: QSVLTQPPSVSAAPGQKVTISCSGSSSNIGNNYVSWYQQLPGTAPKLLIYDNNKRPSGIPDRFSGSKSGTSATLGITGLQTGDEADYYCGTWDSSLSAWVFGGGTKLT
notes: Human IgG from a mammalian expression vector in CHO cells; also called heavy chain H23499

- Kd [3]: 3.5 nM
- EC50 (read off the curve) [13]: ~1 µg/mL
- EC50 (read off the curve) [14]: ~0.04 µg/mL
- EC50 (read off the curve) [15]: ~0.4 µg/mL
- EC50 (read off the curve) [16]: ~0.04 µg/mL
- Kd [7]: 1.3 nM
B4: anti-CCR8-2-7 (antibody, V domains shown)
VH: B3 VH with R101D, D105K
VL: B3 VL
notes: Human IgG

- Kd [3]: 3.2 nM
- EC50 (read off the curve) [17]: ~0.4 µg/mL
- EC50 (read off the curve) [18]: ~0.04 µg/mL
- EC50 (read off the curve) [19]: ~0.04 µg/mL
- EC50 (read off the curve) [20]: ~0.4 µg/mL
- Kd [7]: 1.5 nM
B5: anti-CCR8-2-9 (antibody, V domains shown)
VH: B3 VH with R101K
VL: B3 VL
notes: Human IgG
